Holding throughout (assay): cleavage_in_vitro
One data set concerns the target T1, CasX variant 438 (synthetic construct).
T1 chain: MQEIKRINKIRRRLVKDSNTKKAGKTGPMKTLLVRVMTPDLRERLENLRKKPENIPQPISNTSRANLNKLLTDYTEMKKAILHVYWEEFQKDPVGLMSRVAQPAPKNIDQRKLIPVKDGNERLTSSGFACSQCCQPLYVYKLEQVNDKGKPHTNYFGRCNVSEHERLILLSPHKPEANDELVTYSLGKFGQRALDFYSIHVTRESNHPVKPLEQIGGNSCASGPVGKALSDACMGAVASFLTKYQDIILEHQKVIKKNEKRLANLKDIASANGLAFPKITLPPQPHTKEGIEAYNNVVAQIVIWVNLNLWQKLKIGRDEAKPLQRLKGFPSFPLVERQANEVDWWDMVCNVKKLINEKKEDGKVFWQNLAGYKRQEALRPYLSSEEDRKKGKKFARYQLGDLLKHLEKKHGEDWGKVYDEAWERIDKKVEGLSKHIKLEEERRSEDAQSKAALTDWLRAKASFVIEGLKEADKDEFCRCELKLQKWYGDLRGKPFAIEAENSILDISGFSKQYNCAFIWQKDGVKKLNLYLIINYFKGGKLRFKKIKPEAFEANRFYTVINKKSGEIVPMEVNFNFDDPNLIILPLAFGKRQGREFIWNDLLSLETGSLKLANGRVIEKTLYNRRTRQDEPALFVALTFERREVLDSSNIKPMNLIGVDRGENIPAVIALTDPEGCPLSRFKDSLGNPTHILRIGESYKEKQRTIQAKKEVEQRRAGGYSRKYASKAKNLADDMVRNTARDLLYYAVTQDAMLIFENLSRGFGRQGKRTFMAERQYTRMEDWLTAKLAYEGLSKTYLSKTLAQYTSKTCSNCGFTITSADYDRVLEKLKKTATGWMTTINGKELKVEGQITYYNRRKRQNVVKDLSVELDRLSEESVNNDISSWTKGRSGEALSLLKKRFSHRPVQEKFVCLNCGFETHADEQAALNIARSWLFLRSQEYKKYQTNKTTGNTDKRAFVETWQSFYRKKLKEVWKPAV

The next data set has as its target T2, CasX 2 (reference CasX) (Planctomycetes).
T2 chain: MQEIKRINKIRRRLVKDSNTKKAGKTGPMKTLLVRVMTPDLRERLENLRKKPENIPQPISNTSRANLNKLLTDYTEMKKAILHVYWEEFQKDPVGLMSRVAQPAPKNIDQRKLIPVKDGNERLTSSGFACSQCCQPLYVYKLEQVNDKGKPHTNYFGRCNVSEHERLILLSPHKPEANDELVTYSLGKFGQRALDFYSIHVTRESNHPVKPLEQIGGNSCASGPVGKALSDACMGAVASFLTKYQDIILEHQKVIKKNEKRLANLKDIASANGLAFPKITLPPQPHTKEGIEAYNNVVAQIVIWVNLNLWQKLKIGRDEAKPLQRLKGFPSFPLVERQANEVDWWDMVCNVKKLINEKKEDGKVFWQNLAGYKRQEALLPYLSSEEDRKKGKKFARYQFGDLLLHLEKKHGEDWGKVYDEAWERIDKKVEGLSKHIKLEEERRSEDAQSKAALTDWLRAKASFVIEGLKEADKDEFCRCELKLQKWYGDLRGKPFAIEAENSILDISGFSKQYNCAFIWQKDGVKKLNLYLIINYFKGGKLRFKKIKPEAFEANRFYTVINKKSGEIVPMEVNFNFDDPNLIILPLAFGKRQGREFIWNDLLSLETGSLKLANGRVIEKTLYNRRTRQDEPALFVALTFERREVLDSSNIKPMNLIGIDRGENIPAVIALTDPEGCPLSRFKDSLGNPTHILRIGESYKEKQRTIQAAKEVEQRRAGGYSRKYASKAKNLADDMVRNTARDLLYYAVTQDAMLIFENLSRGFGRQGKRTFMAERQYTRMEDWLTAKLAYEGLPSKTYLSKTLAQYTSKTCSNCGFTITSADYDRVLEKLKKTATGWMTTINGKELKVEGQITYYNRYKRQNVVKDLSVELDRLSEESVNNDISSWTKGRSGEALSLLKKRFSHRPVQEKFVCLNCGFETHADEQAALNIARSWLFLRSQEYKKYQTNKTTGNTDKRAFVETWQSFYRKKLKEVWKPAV

Another data set concerns the target T3, CasX variant 119 (synthetic construct).
T3 chain: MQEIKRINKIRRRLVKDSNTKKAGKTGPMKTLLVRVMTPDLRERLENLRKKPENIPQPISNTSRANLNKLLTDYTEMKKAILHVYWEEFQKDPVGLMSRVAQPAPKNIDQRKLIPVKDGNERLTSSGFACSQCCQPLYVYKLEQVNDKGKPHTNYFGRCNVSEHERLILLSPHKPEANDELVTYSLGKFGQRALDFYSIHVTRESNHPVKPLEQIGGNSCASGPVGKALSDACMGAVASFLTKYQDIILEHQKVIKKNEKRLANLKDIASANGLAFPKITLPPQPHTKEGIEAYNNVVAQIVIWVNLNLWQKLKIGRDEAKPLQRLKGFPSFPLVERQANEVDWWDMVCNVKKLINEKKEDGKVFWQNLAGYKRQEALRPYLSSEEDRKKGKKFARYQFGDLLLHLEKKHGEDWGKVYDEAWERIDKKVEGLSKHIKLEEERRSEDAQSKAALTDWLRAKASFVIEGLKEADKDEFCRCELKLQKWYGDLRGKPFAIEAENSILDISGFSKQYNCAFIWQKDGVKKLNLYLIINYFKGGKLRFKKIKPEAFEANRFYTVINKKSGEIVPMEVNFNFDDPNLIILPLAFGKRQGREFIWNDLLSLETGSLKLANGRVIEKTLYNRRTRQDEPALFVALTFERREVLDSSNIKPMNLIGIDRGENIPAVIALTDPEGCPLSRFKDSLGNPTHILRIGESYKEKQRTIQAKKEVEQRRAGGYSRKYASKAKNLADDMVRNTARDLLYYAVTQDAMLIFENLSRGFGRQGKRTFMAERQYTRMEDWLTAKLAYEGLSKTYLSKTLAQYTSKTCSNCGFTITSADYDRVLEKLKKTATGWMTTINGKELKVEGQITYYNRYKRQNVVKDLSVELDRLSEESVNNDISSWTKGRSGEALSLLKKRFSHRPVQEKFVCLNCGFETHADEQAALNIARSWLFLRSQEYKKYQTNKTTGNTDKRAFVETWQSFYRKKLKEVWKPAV

A further data set addresses T4, CasX variant 491 (synthetic construct).
T4 chain: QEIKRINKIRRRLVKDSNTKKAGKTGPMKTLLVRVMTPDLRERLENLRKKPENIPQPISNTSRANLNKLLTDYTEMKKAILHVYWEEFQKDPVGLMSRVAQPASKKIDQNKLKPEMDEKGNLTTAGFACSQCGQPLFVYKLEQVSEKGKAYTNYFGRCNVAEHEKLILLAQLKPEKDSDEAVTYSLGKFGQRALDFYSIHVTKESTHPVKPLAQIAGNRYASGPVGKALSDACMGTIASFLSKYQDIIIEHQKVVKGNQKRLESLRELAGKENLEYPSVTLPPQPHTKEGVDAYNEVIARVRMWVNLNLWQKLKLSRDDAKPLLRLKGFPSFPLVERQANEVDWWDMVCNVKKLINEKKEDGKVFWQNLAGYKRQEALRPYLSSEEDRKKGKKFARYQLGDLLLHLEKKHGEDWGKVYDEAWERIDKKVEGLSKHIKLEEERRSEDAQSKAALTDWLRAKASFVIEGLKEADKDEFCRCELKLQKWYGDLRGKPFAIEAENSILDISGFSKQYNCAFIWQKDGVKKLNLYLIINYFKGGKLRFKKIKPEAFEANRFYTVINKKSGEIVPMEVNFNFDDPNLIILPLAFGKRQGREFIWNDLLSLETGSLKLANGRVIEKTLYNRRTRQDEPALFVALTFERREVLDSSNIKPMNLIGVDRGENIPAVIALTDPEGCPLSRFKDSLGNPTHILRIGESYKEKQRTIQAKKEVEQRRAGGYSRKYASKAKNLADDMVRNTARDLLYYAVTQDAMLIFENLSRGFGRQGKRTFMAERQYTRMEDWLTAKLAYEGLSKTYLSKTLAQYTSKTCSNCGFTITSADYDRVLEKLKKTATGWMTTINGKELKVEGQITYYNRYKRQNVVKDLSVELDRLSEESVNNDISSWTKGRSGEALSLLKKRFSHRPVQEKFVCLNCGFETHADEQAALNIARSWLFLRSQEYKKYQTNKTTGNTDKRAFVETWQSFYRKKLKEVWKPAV

B1: gRNA scaffold 174 + spacer 7.37 ; 7.37 CTC PAM target (ssRNA ; dsDNA)
RNA: ACUGGCGCUUUUAUCUGAUUACUUUGAGAGCCAUCACCAGCGACUAUGUCGUAGUGGGUAAAGCUCCCUCUUCGGAGGGAGCAUCAAAGGGGCCGAGAUGUCUCGCUCC
DNA 1: TGAAGCTGACAGCACTCGGGCCGAGATGTCTCGCTCCGTGGCCTTAGCTGTGCTCGCGCT
DNA 2: AGCGCGAGCACAGCTAAGGCCACGGAGCGAGACATCTCGGCCCGAGTGCTGTCAGCTTCA
Regarding B1, the values for the activity with CasX variant 438, in the data set with CasX 2 (reference CasX) and with CasX variant 119 were 0.212 min⁻¹, 0.00929 min⁻¹ and 0.303 min⁻¹, respectively.

B2: gRNA scaffold 174 + spacer 7.37 ; 7.37 TTT PAM target (ssRNA ; dsDNA)
RNA: ACUGGCGCUUUUAUCUGAUUACUUUGAGAGCCAUCACCAGCGACUAUGUCGUAGUGGGUAAAGCUCCCUCUUCGGAGGGAGCAUCAAAGGGGCCGAGAUGUCUCGCUCC
DNA 1: TGAAGCTGACAGCATTTGGGCCGAGATGTCTCGCTCCGTGGCCTTAGCTGTGCTCGCGCT
DNA 2: AGCGCGAGCACAGCTAAGGCCACGGAGCGAGACATCTCGGCCCAAATGCTGTCAGCTTCA
Regarding B2, the activity with CasX variant 491 was found to be 1.33 min⁻¹.

B3: gRNA scaffold 174 + spacer 7.37 ; 7.37 GTC PAM target (ssRNA ; dsDNA)
RNA: ACUGGCGCUUUUAUCUGAUUACUUUGAGAGCCAUCACCAGCGACUAUGUCGUAGUGGGUAAAGCUCCCUCUUCGGAGGGAGCAUCAAAGGGGCCGAGAUGUCUCGCUCC
DNA 1: TGAAGCTGACAGCAGTCGGGCCGAGATGTCTCGCTCCGTGGCCTTAGCTGTGCTCGCGCT
DNA 2: AGCGCGAGCACAGCTAAGGCCACGGAGCGAGACATCTCGGCCCGACTGCTGTCAGCTTCA
Regarding B3, the values for the activity with CasX 2 (reference CasX) and in the data set with CasX variant 119 were 0.00375 min⁻¹ and 0.0864 min⁻¹, respectively.

B4: gRNA scaffold 174 + spacer 7.37 ; 7.37 ATC PAM target (ssRNA ; dsDNA)
RNA: ACUGGCGCUUUUAUCUGAUUACUUUGAGAGCCAUCACCAGCGACUAUGUCGUAGUGGGUAAAGCUCCCUCUUCGGAGGGAGCAUCAAAGGGGCCGAGAUGUCUCGCUCC
DNA 1: TGAAGCTGACAGCAATCGGGCCGAGATGTCTCGCTCCGTGGCCTTAGCTGTGCTCGCGCT
DNA 2: AGCGCGAGCACAGCTAAGGCCACGGAGCGAGACATCTCGGCCCGATTGCTGTCAGCTTCA
As for B4, the activity in the data set with CasX variant 438 amounted to 0.408 min⁻¹; in the data set with CasX 2 (reference CasX), 0.0187 min⁻¹; with CasX variant 119 it was 0.54 min⁻¹.

Values taken from patent publication US20240360474 (Scribe Therapeutics Inc., published 2024).
